Measurements published in publication PMC9774280, “Colon-Targeted eNAMPT-Specific Peptide Systems for Treatment of DSS-Induced Acute and Chronic Colitis in Mouse” (Antioxidants, 2022).

Experiments:
[1] = target: fluorescently labeled TLR4 (recombinant) (UniProt O00206 24-839, fluorescently labeled); test: other fluorescence titration; fluorescently labeled TLR4 or CYBB titrated with unlabeled NAMPT; recombinant proteins; Kd by curve fit analysis; conditions: both partners purified
[2] = target: fluorescently labeled CYBB (recombinant) (UniProt P04839 1-570, fluorescently labeled); test: as above; conditions: both partners purified
Sequence of fluorescently labeled CYBB (recombinant) (P04839 whole entry): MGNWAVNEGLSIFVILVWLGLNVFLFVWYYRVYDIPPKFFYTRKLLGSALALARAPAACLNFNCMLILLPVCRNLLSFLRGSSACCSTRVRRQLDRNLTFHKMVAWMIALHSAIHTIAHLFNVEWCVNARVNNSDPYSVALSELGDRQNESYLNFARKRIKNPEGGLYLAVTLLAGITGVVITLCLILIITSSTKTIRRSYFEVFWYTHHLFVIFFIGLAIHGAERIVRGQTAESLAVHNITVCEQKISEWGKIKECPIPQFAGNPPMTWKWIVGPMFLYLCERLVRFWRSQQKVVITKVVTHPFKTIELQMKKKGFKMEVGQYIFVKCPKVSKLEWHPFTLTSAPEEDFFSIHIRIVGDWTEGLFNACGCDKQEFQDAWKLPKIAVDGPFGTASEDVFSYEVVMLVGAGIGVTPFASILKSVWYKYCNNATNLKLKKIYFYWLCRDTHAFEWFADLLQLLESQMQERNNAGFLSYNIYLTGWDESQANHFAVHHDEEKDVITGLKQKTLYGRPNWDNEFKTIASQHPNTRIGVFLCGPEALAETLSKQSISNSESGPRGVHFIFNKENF

Kd [1]: 219 nM
Kd [2]: 896 nM
B1: recombinant NAMPT protein (natural protein, UniProt P43490 1-491, looked up)
chain: MNPAAEAEFNILLATDSYKVTHYKQYPPNTSKVYSYFECREKKTENSKLRKVKYEETVFYGLQYILNKYLKGKVVTKEKIQEAKDVYKEHFQDDVFNEKGWNYILEKYDGHLPIEIKAVPEGFVIPRGNVLFTVENTDPECYWLTNWIETILVQSWYPITVATNSREQKKILAKYLLETSGNLDGLEYKLHDFGYRGVSSQETAGIGASAHLVNFKGTDTVAGLALIKKYYGTKDPVPGYSVPAAEHSTITAWGKDHEKDAFEHIVTQFSSVPVSVVSDSYDIYNACEKIWGEDLRHLIVSRSTQAPLIIRPDSGNPLDTVLKVLEILGKKFPVTENSKGYKLLPPYLRVIQGDGVDINTLQEIVEGMKQKMWSIENIAFGSGGGLLQKLTRDLLNCSFKCSYVVTNGLGINVFKDPVADPNKRSKKGRLSLHRTPAGNFVTLEEGKGDLEEYGQDLLHTVFKNGKVTKSYSFDEIRKNAQLNIELEAAHH
notes: recombinant NAMPT protein added to BMDMs and precipitated with anti-His; The His tag is known only from the anti-His precipitation; also called rNAMPT; eNAMPT; source: recombinant
